{"source": "paper PMC10864275", "about": "“Binding kinetics drive G protein subtype selectivity at the β1-adrenergic receptor” (Nature Communications, 2024)", "key": {"[1]": {"target": "avi-β1AR-E (turkey β1-adrenergic receptor, β1AR-E construct with N-terminal biotinylated avi-tag) (turkey), P07700", "sequence (P07700 other isoform, or with tags, fused parts or gaps)": "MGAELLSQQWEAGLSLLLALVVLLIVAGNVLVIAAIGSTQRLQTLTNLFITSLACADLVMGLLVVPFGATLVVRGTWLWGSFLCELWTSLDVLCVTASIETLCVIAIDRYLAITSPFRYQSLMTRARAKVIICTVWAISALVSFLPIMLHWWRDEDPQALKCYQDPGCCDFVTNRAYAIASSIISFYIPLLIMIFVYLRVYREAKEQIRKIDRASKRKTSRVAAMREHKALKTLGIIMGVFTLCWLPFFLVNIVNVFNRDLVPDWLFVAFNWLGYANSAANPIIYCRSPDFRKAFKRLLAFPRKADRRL", "test": "BLI; biotinylated avi-β1AR in LMNG on streptavidin biosensors, mini-G in solution; 500 μM isoprenaline; 20 mM TrisHCl pH 8.0, 150 mM NaCl, 15 mM MgCl2, 0.02% LMNG, 0.1% BSA; 25 °C; single point measurements, monophasic 1:1 local fit, n = 3"}, "[2]": {"target": "avi-β1AR-E (turkey β1-adrenergic receptor, minimally thermostabilised construct with E130 restored, N-terminal biotinylated avi-tag) (turkey), P07700", "sequence (P07700 other isoform, or with tags, fused parts or gaps)": "as above", "test": "BLI; biotinylated avi-tagged receptor in LMNG immobilised on streptavidin biosensors; 500 μM isoprenaline; mini-G in solution at a single concentration (0.125-4 μM); 20 mM TrisHCl pH 8.0, 150 mM NaCl, 15 mM MgCl2, 0.02% LMNG, 0.1% BSA; 25 °C; 1:1 monophasic local partial fit; one of n = 3 tips"}, "[3]": {"target": "avi-β1AR-W (turkey β1-adrenergic receptor β1AR-MetΔ5, thermostabilised with E130W, N-terminal biotinylated avi-tag) (turkey), P07700", "sequence (P07700 other isoform, or with tags, fused parts or gaps E130W)": "as the sequence (P07700 other isoform, or with tags, fused parts or gaps) above, with E100W counted along it", "test": "BLI; biotinylated avi-tagged receptor in LMNG immobilised on streptavidin biosensors; 500 μM isoprenaline; mini-G in solution at a single concentration (0.125-4 μM); 20 mM TrisHCl pH 8.0, 150 mM NaCl, 15 mM MgCl2, 0.02% LMNG, 0.1% BSA; 25 °C; 1:1 monophasic local partial fit; one of n = 3 tips"}}, "note": "Several values for one entry are separate records, joined by “and”; a condition that tells them apart may be missing. Equal entries are not always repeated.", "data": [{"binder": "mini-Gs 393 with C96A (domain or fragment, modifications not checked) GIEKQLQKDKQVYRATHRLLLLGADNSGKSTIVKQMRIYHGGSGGSGGTSGIFETKFQVDKVNFHMFDVGGQRDERRKWIQAFNDVTAIIFVVDSSDYNRLQEALNDFKSIWNNRWLRTISVILFLNKQDLLAEKVLAGKSKIEDYFPEFARYTTPEDATPEPGEDPRVTRAKYFIRDEFLRISTASGDGRHYCYPHFTCAVDTENARRIFNDCRDIIQRMHLRQYELL", "values": [{"measurement": "Kd", "setting": "[1]", "value": 47, "unit": "nM"}]}, {"binder": "mini-Go1 R12 (domain or fragment, modifications not checked) IEKNLKEDGISAAKDVKLLLLGADNSGKSTIVKQMKIIHTTGIVETHFTFKNLHFRLFDVGGQRSERKKWIHCFEDVTAIIFCVDLSDYNRMHESLMLFDSICNNKFFIDTSIILFLNKKDLFGEKIKKSPLTICFPEYTGPNTYEDAAAYIQAQFESKNRSPNKEIYCHMTCATDTNNAQVIFDAVTDIIIANNLRGCGLY", "values": [{"measurement": "Kd", "setting": "[1]", "value": 1340, "unit": "nM"}, {"measurement": "fold reduction of kon against mini-Gs", "setting": "[1]", "value": 50, "unit": "fold"}, {"measurement": "Kd", "setting": "[2]", "value": "1430 nM and 1120 nM and 1460 nM"}, {"measurement": "koff", "setting": "[2]", "value": "0.0042 s⁻¹ and 0.00358 s⁻¹ and 0.00401 s⁻¹"}, {"measurement": "kon", "setting": "[2]", "value": "2950 M⁻¹ s⁻¹ and 3200 M⁻¹ s⁻¹ and 2740 M⁻¹ s⁻¹"}, {"measurement": "Kd", "setting": "[3]", "value": "8710 nM and 8110 nM and 5420 nM"}, {"measurement": "koff", "setting": "[3]", "value": "0.0102 s⁻¹ and 0.00894 s⁻¹ and 0.00914 s⁻¹"}, {"measurement": "kon", "setting": "[3]", "value": "1170 M⁻¹ s⁻¹ and 1100 M⁻¹ s⁻¹ and 1690 M⁻¹ s⁻¹"}]}]}
